Measured values: patent publication US20090226466A1

Columns and labels:
[1] = target: murine FcγRIII on cells (murine) (UniProt P08508); assay: cell-based or functional assay
[2] = target: full-length murine NKG2D on cells (murine) (UniProt O54709); assay: cell-based or functional assay
[3] = target: human NKG2D on CHO transfectant cells (human) (UniProt P26718); assay: flow cytometry on human NKG2D-CHO transfectant cells
[4] = target: full-length murine NKG2D on cells (murine) (UniProt O54709); assay: flow cytometry on stable mNKG2D transfectant HEK293 cells
[5] = target: soluble form of murine NKG2D representing residues 88-232, N'-FLAG tagged (murine) (UniProt O54709); assay: ELISA, mNKG2D immobilized on plate, goat anti-mouse F(ab')2-HRP detection
[6] = target: full-length murine NKG2D on cells (murine) (UniProt O54709); assay: flow cytometry on NK cells from mouse splenocytes, biotinylated antibody and streptavidin
[7] = target: full-length murine NKG2D on cells (murine) (UniProt O54709); assay: flow cytometry on stable mNKG2D transfectant HEK293 cells, isotype control

Chain of UniProt P26718 (P26718 whole entry): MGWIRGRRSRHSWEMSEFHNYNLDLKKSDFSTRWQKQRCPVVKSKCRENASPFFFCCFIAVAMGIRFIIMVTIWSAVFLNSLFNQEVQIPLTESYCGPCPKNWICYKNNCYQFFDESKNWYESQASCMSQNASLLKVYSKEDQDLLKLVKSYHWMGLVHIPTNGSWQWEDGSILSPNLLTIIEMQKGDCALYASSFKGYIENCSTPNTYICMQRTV
Chain of UniProt P08508 (P08508 31-261): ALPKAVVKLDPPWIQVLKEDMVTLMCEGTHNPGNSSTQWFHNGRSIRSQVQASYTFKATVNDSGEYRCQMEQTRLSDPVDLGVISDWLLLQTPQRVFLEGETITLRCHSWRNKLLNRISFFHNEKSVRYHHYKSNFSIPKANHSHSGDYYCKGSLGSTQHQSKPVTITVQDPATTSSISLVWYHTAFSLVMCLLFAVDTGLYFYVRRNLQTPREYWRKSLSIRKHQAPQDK

Substance	killing of BT474 cells by murine DX5+ NK cells (lactate dehydrogenase release), E:T ratio of 50:1, 6.7 nM antibody [1]	killing of BT474 cells by murine DX5+ NK cells (lactate dehydrogenase release), E:T ratio of 50:1, 6.7 nM antibody [2]	MFI [3]	MFI [4]	EC50 [5]	killing of BT474 cells by splenic NK cells of murine FcγRIII knockout mice, E:T ratio 20:1 [2]	MFI [6]	MFI [7]
Anti-HER2 (4D5 mIgG2a) (antibody)	15%							
Anti-HER2*-MicB fusion antibody (D265A + N297A) (from UniProt Q29980 16-297)		15%	61.7 MFI	11 MFI	300 pM			
Anti-HER2-H60 fusion antibody				100 MFI	200 pM	10%	48.9 MFI	
Anti-HER2-MicB fusion antibody (from UniProt Q29980 16-297)			61.7 MFI	11 MFI	300 pM	10%		
mouse IgG2a control antibody								4 MFI
